Among the data in publication PMC314469, “Protein Interaction Networks by Proteome Peptide Scanning” (PLoS Biology, 2004) are normalised SPOT signal, Boehringer light units (BLU); mean over the file's lines of this peptide values, retold here.

One assay addresses endophilin SH3 (SH3G2_HUMAN), Q99962. Description: SPOT array.
Regarding GEGGPQRPSRSQRR [O75145 4-17], the normalised SPOT signal, Boehringer light units (BLU); mean over the file's lines of this peptide worked out at 1590.
Still for that read-out and setting: then AKRHPRRPPRSPGM [Q99973 387-400], with 141.
Regarding GIPPPKRPLKVSQK [Q9P2B8 1668-1681], the normalised SPOT signal, Boehringer light units (BLU); mean over the file's lines of this peptide came to 687.
On the same count and under the same terms, then GGRTPRRPGLQSGG [O94836 58-71], with 72.8; and AAALPAKPPNLDAA [Q96GI7 75-89], with 73; and GFPAPFRPSRKRSG [O43594 101-114], with 10200.
Still for that read-out and setting: then GHGEPRRPPSDPLA [Q14349 378-391], with 65.1.
On the same count and under the same terms, the same measure for AKREPRRPSWSPRL [Q96BH5 55-68]: 195; for GIKSPSKPPGPNRI [Q9Y474 19-33]: 7270.
For AKTPLSRPVKRNNA [O43525 89-102], the normalised SPOT signal, Boehringer light units (BLU); mean over the file's lines of this peptide turned out to be 149.
Same read-out and setting: the same measure for GHQEFARPSRGYLA [P13385 32-45]: 214.
GIPSPRRPMSNLWL [Q14031 953-966] had a normalised SPOT signal, Boehringer light units (BLU); mean over the file's lines of this peptide of 647.
On the same count and under the same terms, the same measure for GGPSPSRPPPSLFS [O43823 235-249]: 1350.
On the same count and under the same terms, then GEPSPKRPRGRPKG [P52926 41-54], with 59.1.
Still for that read-out and setting: then GEQTFKRPAEDTLY [Q96LK2 45-58], with 15.9; and GHQEFARPSRGDLA [P51864 32-45], with 52.8.
Regarding GESRLKRPSVLISA [Q13319 50-63], the normalised SPOT signal, Boehringer light units (BLU); mean over the file's lines of this peptide is 0.
Still for that read-out and setting: the same measure for GGFLPARPPRAQRH [Q9ULP6 14-28]: 14800; for GESRIRRPMNAFMV [Q9H6I2 64-77]: 138.
The same measure, in the same setting: the same measure for GHRPPGRPRRSPKA [O75866 29-42]: 172; for GEVPPPRPPPPEEK [P18206 866-880]: 1140; for GGQPPPRPPPGMPH [Q15427 329-343]: 536.
Take GHTLPPKPPSPRGT [Q9HBQ2 154-168]: the normalised SPOT signal, Boehringer light units (BLU); mean over the file's lines of this peptide came to 4690.
On to GGHGPERPKRPGSL [Q9HCE9 771-784], for which the normalised SPOT signal, Boehringer light units (BLU); mean over the file's lines of this peptide stood at 1320.
The same measure, in the same setting: the same measure for AALRPPRPARGSRL [Q9BZJ7 202-215]: 23700; for GEGMFRRPSEGQSL [Q92622 499-512]: 68.7; for AKMPLRRPKMKKTP [O95359 373-386]: 200.
On the same count and under the same terms, then GGASPLRPPGAGPQ [Q9H013 877-891], with 80.4.
Molecule GGFKPSRPPRPSRP [O43584 81-95] came in with a normalised SPOT signal, Boehringer light units (BLU); mean over the file's lines of this peptide of 22700.
The same measure, in the same setting: the same measure for GGDALGRPPRGARS [Q9H3Z7 68-81]: 741; for GINAFARPSKMPYV [P40222 168-181]: 96.7.
On the same count and under the same terms, the same measure for GEQAPARPPRNVQA [Q9UM81 410-423]: 527; for GFGVLRRPRPTPGD [Q9H5X0 195-208]: 74.2; for GHRDPRRPRPAQLP [O00456 566-579]: 418.
Same read-out and setting: then GGGSPEKPPSRRRP [O95153 1407-1421], with 499.
Molecule GGASPGRPPQPEQP [Q00056 105-119] displayed a normalised SPOT signal, Boehringer light units (BLU); mean over the file's lines of this peptide of 845.
On the same count and under the same terms, the same measure for GGPRPRRPLLLPNL [Q9UQ05 736-749]: 2950; for GGVRLRRPSVNGEP [Q9H7M7 1141-1154]: 36.

In a further assay the target is T1, amphyphisin SH3 (AMPH_HUMAN), P49418.
T1 chain: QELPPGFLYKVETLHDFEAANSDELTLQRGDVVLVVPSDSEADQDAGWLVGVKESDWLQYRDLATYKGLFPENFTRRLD
Description: SPOT array.
Consider GEGGPQRPSRSQRR [O75145 4-17], for which the normalised SPOT signal, Boehringer light units (BLU); mean over the file's lines of this peptide was determined as 9950.
The same measure, in the same setting: then AKRHPRRPPRSPGM [Q99973 387-400], with 1220; and GIPPPKRPLKVSQK [Q9P2B8 1668-1681], with 116; and GGRTPRRPGLQSGG [O94836 58-71], with 28.
The same measure, in the same setting: the same measure for AAALPAKPPNLDAA [Q96GI7 75-89]: 53.7.
Still for that read-out and setting: the same measure for GFPAPFRPSRKRSG [O43594 101-114]: 9490.
In the case of GHGEPRRPPSDPLA [Q14349 378-391], the normalised SPOT signal, Boehringer light units (BLU); mean over the file's lines of this peptide is 20.6.
On to AKREPRRPSWSPRL [Q96BH5 55-68], for which the normalised SPOT signal, Boehringer light units (BLU); mean over the file's lines of this peptide was 47.1.
Same read-out and setting: then GIKSPSKPPGPNRI [Q9Y474 19-33], with 53.5.
Molecule AKTPLSRPVKRNNA [O43525 89-102] returned a normalised SPOT signal, Boehringer light units (BLU); mean over the file's lines of this peptide of 52.6.
Still for that read-out and setting: then GHQEFARPSRGYLA [P13385 32-45], with 2370; and GIPSPRRPMSNLWL [Q14031 953-966], with 76.5.
Still for that read-out and setting: then GGPSPSRPPPSLFS [O43823 235-249], with 93.5.
Still for that read-out and setting: the same measure for GEPSPKRPRGRPKG [P52926 41-54]: 23.6; for GEQTFKRPAEDTLY [Q96LK2 45-58]: 15.2.
For GHQEFARPSRGDLA [P51864 32-45], the normalised SPOT signal, Boehringer light units (BLU); mean over the file's lines of this peptide was found to be 1570.
On the same count and under the same terms, the same measure for GESRLKRPSVLISA [Q13319 50-63]: 31.9; for GGFLPARPPRAQRH [Q9ULP6 14-28]: 18500; for GESRIRRPMNAFMV [Q9H6I2 64-77]: 46.4.
The same measure, in the same setting: the same measure for GHRPPGRPRRSPKA [O75866 29-42]: 1010; for GEVPPPRPPPPEEK [P18206 866-880]: 45.2.
Still for that read-out and setting: then GGQPPPRPPPGMPH [Q15427 329-343], with 43.1; and GHTLPPKPPSPRGT [Q9HBQ2 154-168], with 577; and GGHGPERPKRPGSL [Q9HCE9 771-784], with 7740.
As for AALRPPRPARGSRL [Q9BZJ7 202-215], the normalised SPOT signal, Boehringer light units (BLU); mean over the file's lines of this peptide was determined as 17100.
On the same count and under the same terms, then GEGMFRRPSEGQSL [Q92622 499-512], with 43.2.
The same measure, in the same setting: the same measure for AKMPLRRPKMKKTP [O95359 373-386]: 34.8; for GGASPLRPPGAGPQ [Q9H013 877-891]: 63.9.
Same read-out and setting: the same measure for GGFKPSRPPRPSRP [O43584 81-95]: 18100; for GGDALGRPPRGARS [Q9H3Z7 68-81]: 2160; for GINAFARPSKMPYV [P40222 168-181]: 105.
GEQAPARPPRNVQA [Q9UM81 410-423] displayed a normalised SPOT signal, Boehringer light units (BLU); mean over the file's lines of this peptide of 3470.
GFGVLRRPRPTPGD [Q9H5X0 195-208] returned a normalised SPOT signal, Boehringer light units (BLU); mean over the file's lines of this peptide of 38.4.
The same measure, in the same setting: then GHRDPRRPRPAQLP [O00456 566-579], with 12.9; and GGGSPEKPPSRRRP [O95153 1407-1421], with 811.
On to GGASPGRPPQPEQP [Q00056 105-119], for which the normalised SPOT signal, Boehringer light units (BLU); mean over the file's lines of this peptide was 38.2.
In the case of GGPRPRRPLLLPNL [Q9UQ05 736-749], the normalised SPOT signal, Boehringer light units (BLU); mean over the file's lines of this peptide came out at 40.5.
On the same count and under the same terms, the same measure for GGVRLRRPSVNGEP [Q9H7M7 1141-1154]: 35.8.
